According to patent US20210147523A1 (TEIJIN PHARMA, published 2021):

T1: Mutant 1 of human SPNS2 (FLAG tag inserted in extracellular loop 1) (human, UniProt Q8IVW8 1-549)
T1 construct: on HEK293 cells; also called extracellular loop 1 mutant
T1 sequence: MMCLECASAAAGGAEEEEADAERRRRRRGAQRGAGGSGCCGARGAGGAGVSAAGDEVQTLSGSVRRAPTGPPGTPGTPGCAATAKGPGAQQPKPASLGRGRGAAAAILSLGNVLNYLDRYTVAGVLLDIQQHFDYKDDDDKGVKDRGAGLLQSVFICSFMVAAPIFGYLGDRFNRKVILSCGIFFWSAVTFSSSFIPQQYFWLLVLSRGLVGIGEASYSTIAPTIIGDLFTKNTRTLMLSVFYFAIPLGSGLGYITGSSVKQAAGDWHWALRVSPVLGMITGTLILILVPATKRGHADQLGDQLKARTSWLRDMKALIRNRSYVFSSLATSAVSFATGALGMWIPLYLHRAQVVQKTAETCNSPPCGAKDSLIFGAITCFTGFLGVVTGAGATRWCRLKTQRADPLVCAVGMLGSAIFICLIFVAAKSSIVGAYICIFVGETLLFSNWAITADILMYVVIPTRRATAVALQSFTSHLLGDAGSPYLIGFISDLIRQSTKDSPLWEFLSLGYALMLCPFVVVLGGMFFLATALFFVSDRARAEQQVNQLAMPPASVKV

T2: Mutant 2 of human SPNS2 (FLAG tag inserted in extracellular loop 5) (human, UniProt Q8IVW8 1-549)
T2 construct: on HEK293 cells; also called extracellular loop 5 mutant
T2 sequence: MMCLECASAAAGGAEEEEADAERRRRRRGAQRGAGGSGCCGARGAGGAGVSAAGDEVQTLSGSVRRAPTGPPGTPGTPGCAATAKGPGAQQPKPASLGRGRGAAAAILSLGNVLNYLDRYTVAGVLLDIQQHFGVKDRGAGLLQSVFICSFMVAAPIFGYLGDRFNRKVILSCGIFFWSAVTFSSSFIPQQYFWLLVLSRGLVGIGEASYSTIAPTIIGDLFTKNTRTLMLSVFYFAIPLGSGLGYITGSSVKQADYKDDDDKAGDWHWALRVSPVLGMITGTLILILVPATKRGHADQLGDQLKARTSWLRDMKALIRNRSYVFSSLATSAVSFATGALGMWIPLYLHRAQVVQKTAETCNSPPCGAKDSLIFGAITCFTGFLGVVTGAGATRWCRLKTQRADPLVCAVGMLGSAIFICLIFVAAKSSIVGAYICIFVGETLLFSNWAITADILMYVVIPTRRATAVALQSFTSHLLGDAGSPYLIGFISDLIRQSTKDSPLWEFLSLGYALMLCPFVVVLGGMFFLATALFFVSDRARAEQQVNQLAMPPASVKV

T3: Mutant 3 of human SPNS2 (FLAG tag inserted in extracellular loop 7) (human, UniProt Q8IVW8 1-549)
T3 construct: on HEK293 cells; also called extracellular loop 7 mutant
T3 sequence: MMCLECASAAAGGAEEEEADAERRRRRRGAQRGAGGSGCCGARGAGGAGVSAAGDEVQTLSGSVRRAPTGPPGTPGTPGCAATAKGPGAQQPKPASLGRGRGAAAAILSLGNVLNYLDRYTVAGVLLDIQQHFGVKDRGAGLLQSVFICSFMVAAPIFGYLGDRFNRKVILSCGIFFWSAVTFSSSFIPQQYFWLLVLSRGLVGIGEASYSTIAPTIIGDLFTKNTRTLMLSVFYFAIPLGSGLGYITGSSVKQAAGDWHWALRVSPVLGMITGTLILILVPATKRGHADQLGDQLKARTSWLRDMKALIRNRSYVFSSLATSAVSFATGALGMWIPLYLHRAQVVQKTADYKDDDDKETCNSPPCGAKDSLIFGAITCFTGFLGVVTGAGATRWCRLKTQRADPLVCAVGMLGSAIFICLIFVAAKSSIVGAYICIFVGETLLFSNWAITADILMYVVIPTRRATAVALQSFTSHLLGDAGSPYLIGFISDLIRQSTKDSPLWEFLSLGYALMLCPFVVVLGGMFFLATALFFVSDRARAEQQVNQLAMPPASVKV

T4: Mutant 4 of human SPNS2 (FLAG tag inserted in extracellular loop 11) (human, UniProt Q8IVW8 1-549)
T4 construct: on HEK293 cells; also called extracellular loop 11 mutant
T4 sequence: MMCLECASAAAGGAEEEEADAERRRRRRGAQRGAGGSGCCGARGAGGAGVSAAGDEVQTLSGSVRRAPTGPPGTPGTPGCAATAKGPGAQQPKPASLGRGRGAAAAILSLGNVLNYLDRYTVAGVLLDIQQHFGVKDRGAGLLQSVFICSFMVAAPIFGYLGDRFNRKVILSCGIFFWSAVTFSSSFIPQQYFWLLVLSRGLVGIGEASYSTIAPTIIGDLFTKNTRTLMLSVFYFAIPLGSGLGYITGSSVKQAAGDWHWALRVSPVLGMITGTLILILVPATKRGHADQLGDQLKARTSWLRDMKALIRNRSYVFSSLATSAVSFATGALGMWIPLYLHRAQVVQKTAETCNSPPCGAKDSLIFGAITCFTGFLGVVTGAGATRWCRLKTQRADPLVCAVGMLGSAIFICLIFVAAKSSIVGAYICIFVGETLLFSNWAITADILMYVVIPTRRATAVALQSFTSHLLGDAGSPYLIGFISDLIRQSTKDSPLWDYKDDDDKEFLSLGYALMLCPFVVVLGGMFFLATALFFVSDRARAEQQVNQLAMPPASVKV

B1: 94-1311E (antibody, V domains shown)
VH: EVQLQQSGAGLVRPRTSVRLSCKISGDSITAYYVHFVKQRPGQGLEWIGRIDPEDDSTKYSEKFKNKATLTADVSSSTAYLILSSLTSDDSATYFCSTLTGLDYWGQGVMVTVSS
VL: DIQMTQSPPVLSASVGDRVTLSCKASQSVHNKLDWYQQKHGEAPKLLIYYTHNLQTGIPSRFSGSGSGSDYTLTISSLRAEDVATYYCFQYYSGWTFGGGTKLEMKR
B2: 33-0503E (antibody, IgG2b, V domains shown)
VH: EVQLVESGGGLVRPGGSMKLSCGASGFIFDNYYMTWVRQAPTKGLEWVASISSSGGNTYYRDSVRGRFTISRDNAGNTLSLQMGSLRAEDTATYHCAKEGYRGRYFDYWGQGVMVTVSS
VL: QVVLTQPNSVSTNLGSTVKLSCKRTTGNIGSNYVNWYQQHEGRSPTTMIYRDDERPDGVPDRFSGSIDRSSNSALLTINNVQTEDEAEYFCQSYSSGIIFGGGTKLTVL
B3: 49-0703G (antibody, IgG2b, V domains shown)
VH: EVQLVESGGGLVQPGRSMKLSCAASGFTFSNHYMAWVRQAPTKGLEWVASISTGGGNTYYRDSVKGRFTISRDNAKSTLYLQMDSLRSEDTATYYCARQDYSNYMGGFAYWGQGTLVTVSS
VL: QFVLTQPNSVSTNLGSTVKLSCKRSTGNIGNNYVNWYQQYEGRSPTTMIYRDDERPDGVPDRFSGSIDRSSNSALLTINNVQTEDEADYFCQSFSNGMFIFAGGTQLTVL
B4: 82-1109A (antibody, IgG2b, V domains shown)
VH: QVQLQQSGVELAKPGSSVKISCKASGNTFTSNYITWIKQTPGQGLEYIGYINTGSGKTYYNEKFKGKATLTADKSSSTAFMQLSSLTPDDSAVYFCASLTGVDYFDDWGQGVMVTVSS
VL: DDIVLTQSPALAPSLGQRATISCRASQSVRMSGYNLMHWYQQKPGQQPKLLIYDASKLASGIPARFSGSGSGTDFTLTIDPVQSDDIATYYCQQSKDDPYTFGAGTKLELRR

Key:
Assay in all cases: flow cytometry, FLAG-insertion mutant
[1] = biological target: T1, Mutant 1 of human SPNS2 (FLAG tag …)
Description: (§1) After the lipofection, the HEK 293 cells cultivated overnight were recovered from the culture dishes, and reacted with a cell staining buffer (BioLegend, 420201) containing an anti-FLAG antibody (Sigma-Aldrich, F1804) and an anti-SPNS2 antibody each in a volume of 20 μg/mL for 30 minutes at room temperature. After washing with a cell staining buffer one time, the anti-FLAG antibody was detected with an anti-mouse IgG-Alexa 647 conjugate antibody, and the anti-SPNS2 antibody was detected with an anti-rat IgG-FITC conjugate antibody with flow cytometer BD LSR Fortessa (Becton Dickinson). The binding ability to each mutant was evaluated with the ratio of the FITC-positive cell rate to the Alexa 647-positive cell rate. In Table 7, symbol (+) indicates a ratio of less than 0.1, symbol (±) indicates a ratio of 0.1 or more and less than 0.5, and symbol (−) indicate a ratio of 0.5 or more.

[2] = biological target: T2, Mutant 2 of human SPNS2 (FLAG tag …)
Description: as §1

[3] = biological target: T3, Mutant 3 of human SPNS2 (FLAG tag …)
Description: as §1

[4] = biological target: T4, Mutant 4 of human SPNS2 (FLAG tag …)
Description: as §1

Binder | FITC+/Alexa 647+ cell rate ratio [1] [ratio] | FITC+/Alexa 647+ cell rate ratio [2] [ratio] | FITC+/Alexa 647+ cell rate ratio [3] [ratio] | FITC+/Alexa 647+ cell rate ratio [4] [ratio]
B1 | < 0.1 | < 0.1 | ≥ 0.5 | ≥ 0.5
B2 | < 0.1 | < 0.1 | ≥ 0.5 | ≥ 0.5
B3 | < 0.1 | < 0.1 | ≥ 0.5 | ≥ 0.5
B4 | ≥ 0.5 | ≥ 0.5 | < 0.1 | < 0.1
